The values below come from article PMC7144210.

Assay [1] has as its target Fc-tagged fibre 1 of the novel FAdV-4 (fowl adenovirus serotype 4 (FAdV-4), strain HLJFAd15).
Assay [2] shares this target. This is another data set of the same source.

In turn, “D2 domain of chicken CAR, soluble, His-tagged (domain or fragment)” gave a block of FAdV-4 infectivity in LMH cells (qPCR at 24 hpi) after pre-incubation of the virus with 12.5 or 25.0 ng/μl D2-CAR; 78% at 12.5 ng/μl, 99.9% at 25 ng/μl in assay [1] of 99.9%. As to “Fc-tagged CAR protein, soluble (Fc fusion)”, the block of FAdV-4 infection of LMH cells (qPCR at 24 hpi) after pre-incubation of the virus with 3.125–12.5 ng/μl soluble CAR protein; Fc protein as negative control in assay [2] lay within 76 to 80%.
